Results reported in US20260184782A1 (TWIST BIOSCIENCE, published 2026).

T1: TIGIT (UniProt Q495A1 22-141, limits assumed)
T1 construct: construct not described; also called T cell immunoreceptor with Ig and ITIM domains
T1 sequence (looked up): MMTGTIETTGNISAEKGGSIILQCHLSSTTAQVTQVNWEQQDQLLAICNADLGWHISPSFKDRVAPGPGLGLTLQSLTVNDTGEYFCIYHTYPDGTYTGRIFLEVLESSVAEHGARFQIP

T2: recombinant human TIGIT (human, UniProt Q495A1 22-141, limits assumed)
T2 construct: also called T cell immunoreceptor with Ig and ITIM domains
T2 sequence (looked up): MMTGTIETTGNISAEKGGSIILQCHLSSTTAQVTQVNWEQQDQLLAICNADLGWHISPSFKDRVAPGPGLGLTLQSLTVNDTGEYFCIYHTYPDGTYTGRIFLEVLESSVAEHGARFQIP

T3: human TIGIT-Fc (human, UniProt Q495A1 22-141, limits assumed)
T3 construct: not shown: Fc; not described
T3 sequence (looked up): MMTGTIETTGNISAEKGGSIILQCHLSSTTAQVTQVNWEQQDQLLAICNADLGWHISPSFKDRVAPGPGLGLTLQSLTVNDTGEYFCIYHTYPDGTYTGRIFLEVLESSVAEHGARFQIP

B1: TIGIT-29-01 VHH-V5-His (VHH)
VHH: EVQLVESGGGLVQAGGSLRLSCAASGRTFSNYAMGWFRQAPGKEREFVAAITWSGTRTDYADSVKGRFTISADNAKNTVYLQMNSLKPEDTAVYYCAAAAWTIYEYDYWGQGTQVTVSS
notes: not shown: V5 and His tags
B2: TIGIT-29-07 VHH-V5-His (VHH)
VHH: EVQLVESGGGLVQAGGSLRLSCAASGSIFSNYAMGWFRQAPGKEREFVATISRGGTRTNYADSVKGRFTISADNAKNTVYLQMNSLKPEDTAVYYCAAAAWTIYAYNYWGQGTQVTVSS
notes: not shown: V5 and His tags
B3: TIGIT-29-12 VHH-V5-His (VHH)
VHH: EVQLVESGGGLVQAGGSLRLSCAASGSTFSSYAMGWFRQAPGKEREFVAAITWSGTRTNYADSVKGRFTISADNAKNTVYLQMNSLKPEDTAVYYCAAAAWTIYTYDSWGQGTQVTVSS
notes: not shown: V5 and His tags
B4: TIGIT-29-30 VHH-V5-His (VHH)
VHH: EVQLVESGGGLVQAGGSLRLSCAASGFTFSSYAMGWFRQAPGKEREFVAAITWSGTRTDYADSVKGRFTISADNAKNTVYLQMNSLKPEDTAVYYCAAAAWRYSEYDYWGQGTQVTVSS
notes: not shown: V5 and His tags
B5: TIGIT-29-33 VHH-V5-His (VHH)
VHH: EVQLVESGGGLVQAGGSLRLSCAASGFIFSTYAMGWFRQAPGKERELVSAITRSGITTYYADSVKGRFTISADNAKNTVYLQMNSLKPEDTAVYYCAAAAWTIYEYDYWGQGTQVTVSS
notes: not shown: V5 and His tags
B6: TIGIT-29-06 VHH-V5-His (VHH)
VHH: EVQLVESGGGLVQAGGSLRLSCAASGGTFRSYVMGWFRQAPGKEREWVATINSSGSRTYYADSVKGRFTISADNAKNTVYLQMNSLKPEDTAVYYCAARPNYRDYEYWGQGTQVTVSS
notes: not shown: V5 and His tags
B7: TIGIT-SC135 (Fc fusion)
VHH: EVQLVESGGGLVQPGGSLRLSCAASGFAFGDSWMGWFRQAPGKEREWVASVLRGGTLRAYAVSVKGRFTISADNSKNAAYLQMNSLKPEDTAVYYCARASIVGTTTLVWGQGTLVTVSS
notes: VHH-Fc
B8: TIGIT-SC210 (Fc fusion)
VHH: EVQLVESGGGLVQPGGSLRLSCAASGFLFDSYWMVWFRQAPGKEREFVAAIWRSGTLKAYADSVKGRFTISADNSKNTAYLQMNSLKPEDTAVYYCARDHRAMVAPFDYWGQGTLVTVSS
notes: VHH-Fc
B9: TIGIT-SC138 (Fc fusion)
VHH: EVQLVESGGGLVQPGGSLRLSCAASGFTLENNMMGWFRQAPGKGREFVAAISRSGTLKAYADSVKGRFTISADNSKNTAYLQMNSLKPEDTAVYYCARVRYYYDSSGYFFWFDLWGQGTLVTVSS
notes: VHH-Fc
B10: TIGIT-SC67 (Fc fusion)
VHH: EVQLVESGGGLVQPGGSLRLSCAASGFTFDRSWMGWFRQAPGKEREWVSTIYSNGTPAYADSVKGRFTISADNSKNTAYLQMNSLKPEDTAVYYCARRGLPSYSYGMDVWGQGTLVTVSS
notes: VHH-Fc
B11: TIGIT-SC82 (Fc fusion)
VHH: EVQLVESGGGLVQPGGSLRLSCAASGSMSSNYAMGWFRQAPGKEREFVAAIDWSGGNTYYADSVKGRFTISADNSKNTAYLQMNSLKPEDTAVYYCAKWFYYGSGLYTLDVWGQGTLVTVSS
notes: VHH-Fc
B12: TIGIT-SC83 (Fc fusion)
VHH: EVQLVESGGGLVQPGGSLRLSCAASGRTFSDDAMGWFRQAPGKEREFVAAISRSGGNTYYADSVKGRFTISADNSKNTAYLQMNSLKPEDTAVYYCAKWFYYGSGLYTLDVWGQGTLVTVSS
notes: VHH-Fc
B13: TIGIT-29-10 VHH-V5-His (VHH)
VHH: EVQLVESGGGLVQAGGSLRLSCAASGRTFSNYGMGWFRQAPGKEREFVSGISGSGGRTSYADSVKGRFTISADNAKNTVYLQMNSLKPEDTAVYYCAANLWYPVDRLNTGFNYWGQGTQVTVSS
notes: not shown: V5 and His tags
B14: TIGIT-SC149 (Fc fusion)
VHH: EVQLVESGGGLVQPGGSLRLSCAASGFTLENNMMGWFRQAPGKEREFVAAISRSGTLKAYADSVKGRFTISADNSKNTAYLQMNSLKPEDTAVYYCAKVQGPYCSGGSCYLYTFDLWGQGTLVTVSS
notes: VHH-Fc
B15: TIGIT-SC151 (Fc fusion)
VHH: EVQLVESGGGLVQPGGSLRLSCAASGFPFSIYPMGWFRQAPGKEREFVAAISASGTLRAYADSVKGRFTISADNSKNTAYLQMNSLKPEDTAVYYCARSSSWVRIFDYWGQGTLVTVSS
notes: VHH-Fc
B16: TIGIT-SC152 (Fc fusion)
VHH: EVQLVESGGGLVQPGGNLRLSCAASGSTFSKHHAMGWFRQAPGKEREFVAGIIRSGTLKAYADSVKGRFTISADNSKNTAYLQMNSLKPEDTAVYYCTRGRAARHNLWYFDLWGQGTLVTVSS
notes: VHH-Fc
B17: TIGIT-SC193 (Fc fusion)
VHH: EVQLVESGGGLVQPGGSLRLSCAASGFTFSDYWMGWFRQAPGKEREFVAAISRSGTLKAYADSVKGRFTISADNSKNTAYLQMNSLKPEDTAVYYCARGSGWPKIHFDYWGQGTLVTVSS
notes: VHH-Fc
B18: TIGIT-29-18 VHH-V5-His (VHH)
VHH: EVQLVESGGGLVQAGGSLRLSCAASGSTFSNYAMGWFRQAPGKEREFVSAINSSGSRTYYADSVKGRFTISADNAKNTVYLQMNSLKPEDTAVYYCAARLWGTWTAGDYDYWGQGTQVTVSS
notes: not shown: V5 and His tags
B19: TIGIT-29-22 VHH-V5-His (VHH)
VHH: EVQLVESGGGLVQAGGSLRLSCAASGSILSSYTMGWFRQAPGKEREFVSTISRSSTRTYYADSVKGRFTISADNAKNTVYLQMNSLKPEDTAVYYCAARLWGTWTAGDYDYWGQGTQVTVSS
notes: not shown: V5 and His tags
B20: TIGIT-29-34 VHH-V5-His (VHH)
VHH: EVQLVESGGGLVQAGGSLRLSCAASGFTFRNYAMGWFRQAPGKEREFVSSISSSSSRTSYADSVKGRFTISADNAKNTVYLQMNSLKPEDTAVYYCAARLWGTWTAGDYDYWGQGTQVTVSS
notes: not shown: V5 and His tags
B21: TIGIT-30-43 VHH-V5-His (VHH)
VHH: EVQLVESGGGLVQAGGSLRLSCAASGFTFSTSWMGWFRQAPGKERELVAARNSGGNTNYADSVKGRFTISADNAKNTVYLQMNSLKPEDTAVYYCAADVWYGSTWRNWGQGTQVTVSS
notes: not shown: V5 and His tags
B22: TIGIT-30-01 VHH-V5-His (VHH)
VHH: EVQLVESGGGLVQAGGSLRLSCAASGFAFSSYWMGWFRQAPGKERELVAARNSGGNTNYADSVKGRFTISADNAKNTVYLQMNSLKPEDTAVYYCAADVWYGSTWRNWGQGTQVTVSS
notes: not shown: V5 and His tags
B23: TIGIT-30-40 VHH-V5-His (VHH)
VHH: EVQLVESGGGLVQAGGSLRLSCAASGFTFSGNWMGWFRQAPGKEREWVVGISSGGSTHYADSVKGRFTISADNAKNTVYLQMNSLKPEDTAVYYCAADVWYGSTWRNWGQGTQVTVSS
notes: not shown: V5 and His tags
B24: TIGIT-30-15 VHH-V5-His (VHH)
VHH: EVQLVESGGGLVQAGGSLRLSCAASGFTFSGNWMGWFRQAPGKEREWVSGISSGGGRTYYADSVKGRFTISADNAKNTVYLQMNSLKPEDTAVYYCAADVWYGSTWRNWGQGTQVTVSS
notes: not shown: V5 and His tags
B25: TIGIT-30-20 VHH-V5-His (VHH)
VHH: EVQLVESGGGLVQAGGSLRLSCAASGPTFSIYDMGWFRQAPGKEREFVAVINWSRGSTFYADSVKGRFTISADNAKNTVYLQMNSLKPEDTAVYYCAAGVWSSLRHTAANWGQGTQVTVSS
notes: not shown: V5 and His tags
B26: TIGIT-30-30 VHH-V5-His (VHH)
VHH: EVQLVESGGGLVQAGGSLRLSCAASGGTFSGRGMGWFRQAPGKEREWVSSVYIFGGSTYYADSVKGRFTISADNAKNTVYLQMNSLKPEDTAVYYCANSNKPKFDWGQGTQVTVSS
notes: not shown: V5 and His tags
B27: TIGIT-30-49 VHH-V5-His (VHH)
VHH: EVQLVESGGGLVQAGGSLRLSCAASGNIFSRYIMGWFRQAPGKEREWVAGISNGGTTKYADSVKGRFTISADNAKNTVYLQMNSLKPEDTAVYYCAQGWKIVPTNWGQGTQVTVSS
notes: not shown: V5 and His tags
B28: TIGIT-30-52 VHH-V5-His (VHH)
VHH: EVQLVESGGGLVQAGGSLRLSCAASGRTFSNYFMGWFRQAPGKERESVATVTWRDNITYYADSVKGRFTISADNAKNTVYLQMNSLKPEDTAVYYCASAGRWGQGTQVTVSS
notes: not shown: V5 and His tags

Legend:
TIGIT [1] = biological target: T1, TIGIT; assay: SPR, VHH-V5-His
TIGIT [2] = biological target: T1, TIGIT; assay: SPR, VHH-V5-His; unit inferred
recombinant human TIGIT = biological target: T2, recombinant human TIGIT; assay: SPR (Carterra), average
Procedure: Binding affinities of VHH-Fc proteins to recombinant human TIGIT were measured by SPR using a Carterra instrument (Table 10A). […] Average values reported from measurements from 1-2 samples.

human TIGIT-Fc [3] = biological target: T3, human TIGIT-Fc; assay: CD155 competition ELISA, single point; further: test concentration or dose not given here
Procedure: (§1) TIGIT/CD155 inhibition of VHH-Fcs were assessed using an ELISA assay (Table 10B). Briefly, human TIGIT-Fc was coated on a plate & then incubated with VHH-Fcs and human CD155-biotin. Bound CD155-biotin was detected using a streptavidin-HRP conjugate visualized with TMB. Strong inhibitors from the single point screen were titrated to determine EC50 (Table 10C).

human TIGIT-Fc [4] = biological target: T3, human TIGIT-Fc; assay: CD155 competition ELISA, titration
Procedure: as §1

Row | Binder | RU (TIGIT [1]) | Kd (TIGIT [2]) | OD (450 nm) (human TIGIT-Fc [3]) | other results
1 | B1 | 88 RU | 365 nM |  | 
2 | B2 | 26 RU | 465 nM |  | 
3 | B3 | 464 RU | 8580 nM |  | 
4 | B4 | 77 RU | 232 nM |  | 
5 | B5 | 202 RU |  |  | 
6 | B6 | 26100 RU |  |  | 
7 | B7 |  |  | 0.827 OD | Kd (recombinant human TIGIT): 1.67 µM; koff (recombinant human TIGIT): 0.21 s⁻¹; kon (recombinant human TIGIT): 126000 M⁻¹ s⁻¹
8 | B8 |  |  | 0.516 OD | Kd (recombinant human TIGIT): 6.33 µM; koff (recombinant human TIGIT): 0.258 s⁻¹; kon (recombinant human TIGIT): 40700 M⁻¹ s⁻¹
9 | B9 |  |  | 0.393 OD | Kd (recombinant human TIGIT): 7.3 µM; koff (recombinant human TIGIT): 0.363 s⁻¹; kon (recombinant human TIGIT): 49700 M⁻¹ s⁻¹
10 | B10 |  |  | 0.149 OD | EC50 (human TIGIT-Fc [4]): 1.23 nM
11 | B11 |  |  | 0.25 OD | EC50 (human TIGIT-Fc [4]): 4.08 nM
12 | B12 |  |  | 0.241 OD | EC50 (human TIGIT-Fc [4]): 4.36 nM
13 | B13 | 36 RU | 323 nM |  | 
14 | B14 |  |  | 0.263 OD | EC50 (human TIGIT-Fc [4]): 11.9 nM
15 | B15 |  |  | 0.206 OD | EC50 (human TIGIT-Fc [4]): 4.14 nM
16 | B16 |  |  | 0.259 OD | EC50 (human TIGIT-Fc [4]): 13.4 nM
17 | B17 |  |  | 0.151 OD | EC50 (human TIGIT-Fc [4]): 4.39 nM
18 | B18 | 157 RU | 352 nM |  | 
19 | B19 | 123 RU | 500 nM |  | 
20 | B20 | 167 RU | 967 nM |  | 
21 | B21 | 407 RU | 107 nM |  | 
22 | B22 | 664 RU | 7460 nM |  | 
23 | B23 | 113 RU | 222 nM |  | 
24 | B24 | 66 RU | 215 nM |  | 
25 | B25 | 69 RU | 195 nM |  | 
26 | B26 | 3 RU |  |  | 
27 | B27 | 99 RU | 945 nM |  | 
28 | B28 | 270 RU |  |  | 
